Laboratory results reported in patent US20260242478A1 (published 2026).
Where no end group is shown, it is not given here.

B1: Phage-2966 (peptide)
peptide: QTPVCIPEWMCTGF
modifications: cysteine pairing not given here; also: peptide displayed as fusion to phage pIII
notes: Clonal phage of the peptide-180 optimisation library, tested as crude phage supernatant; not shown: bacteriophage pIII coat protein to which the peptide is fused for display
B2: Phage-2964 (peptide)
peptide: PGPLCVPEWMCIGF
modifications: cysteine pairing not given here; also: peptide displayed as fusion to phage pIII
notes: as for B1
B3: Phage-2968 (peptide)
peptide: WEAMCQPLWMCTGF
modifications: cysteine pairing not given here; also: peptide displayed as fusion to phage pIII
notes: as for B1
B4: Phage-2971 (peptide)
peptide: DIPICRPQWMCIGF
modifications: cysteine pairing not given here; also: peptide displayed as fusion to phage pIII
notes: as for B1
B5: Phage-2969 (peptide)
peptide: LDIWCVPAWMCHGF
modifications: cysteine pairing not given here; also: peptide displayed as fusion to phage pIII
notes: as for B1
B6: Phage-2967 (peptide)
peptide: GERYCVPAWMCAGL
modifications: cysteine pairing not given here; also: peptide displayed as fusion to phage pIII
notes: as for B1
B7: Phage-2972 (peptide)
peptide: GDVYCKPAWMCDGF
modifications: cysteine pairing not given here; also: peptide displayed as fusion to phage pIII
notes: as for B1
B8: Phage-2963 (peptide)
peptide: NLPLCKPAWMCKWL
modifications: cysteine pairing not given here; also: peptide displayed as fusion to phage pIII
notes: as for B1
B9: Phage-2965 (peptide)
peptide: LFKMCQPSWMCDGF
modifications: cysteine pairing not given here; also: peptide displayed as fusion to phage pIII
notes: as for B1
B10: Phage-2962 (peptide)
peptide: VQSLCVPYWMCTGF
modifications: cysteine pairing not given here; also: peptide displayed as fusion to phage pIII
notes: as for B1
B11: Phage-2970 (peptide)
peptide: VYPLCKPSWMCSGL
modifications: cysteine pairing not given here; also: peptide displayed as fusion to phage pIII
notes: as for B1
B12: Phage-2952 (peptide)
peptide: IMPKCEPIWMCAGF
modifications: cysteine pairing not given here; also: peptide displayed as fusion to phage pIII
B13: Phage-2948 (peptide)
peptide: FPHMCKPEWMCAGF
modifications: cysteine pairing not given here; also: peptide displayed as fusion to phage pIII
B14: Phage-2938 (peptide)
peptide: HVPKCVPQWMCIGF
notes: Peptide-180 library clone, tested as clonal phage (peptide fused to pIII)
B15: Phage-2939 (peptide)
peptide: ISALCVPDWMCYGF
notes: as for B14
B16: Phage-2942 (peptide)
peptide: ELILCQPRWMCEGF
notes: as for B14
B17: Phage-2941 (peptide)
peptide: DVRMCKPSWMCIGL
notes: as for B14
B18: Phage-2943 (peptide)
peptide: EGIYCRPAWMCEGF
notes: as for B14
B19: Phage-2940 (peptide)
peptide: FDKICVPTWMCTGF
notes: as for B14
B20: Phage-2944 (peptide)
peptide: LTPMCKPSWMCDGF
notes: as for B14
B21: Phage-2945 (peptide)
peptide: TVIKCIPAWMCDGF
notes: as for B14
B22: Phage-2937 (peptide)
peptide: VFPMCKPAWMCLGF
notes: as for B14
B23: Phage-2936 (peptide)
peptide: IDPMCKPLWMCAGF
modifications: cysteine pairing not given here; also: peptide displayed as fusion to phage pIII
notes: as for B14
B24: Phage-2946 (peptide)
peptide: EMRMCTPPWMCWGF
notes: as for B14
B25: Phage-2947 (peptide)
peptide: GDHLCRPSWMCVGF
notes: as for B14
B26: Phage-2935 (peptide)
peptide: IHPVCKPDWMCAGF
modifications: cysteine pairing not given here; also: peptide fused to pIII
notes: as for B14

What follows are binders tested against T1, PSMA Fab (biotinylated (site not stated)) (assay: phage ELISA, captured anti-PSMA Fab pre-incubated with PSMA antigen as competitor, anti-M13 HRP detection).
T1 construct: Biotinylated PSMA Fab captured on neutravidin coated plates in the phage ELISA; also called Anti-PSMA Fab; 006 PSMA Fab

Binder	Phage binding ELISA signal, Anti-PSMA Fab in presence of PSMA antigen
B1	0.091
B2	0.114
B3	0.0968
B4	0.0617
B5	0.0712
B6	0.106
B7	0.0762
B8	0.125
B9	0.0804
B10	0.102
B11	0.0843

What follows are binders tested against T2, PSMA Fab (006 PSMA Fab) (biotinylated (site not stated)) (assay: clonal phage ELISA on biotinylated PSMA Fab captured on neutravidin, anti-M13 HRP detection, no PSMA antigen).
T2 construct: also called Anti-PSMA Fab

Binder	Phage binding ELISA signal, Anti-PSMA Fab
WEQRCVPEWMCVGF [Phage-2960]	2.26
B12	2.27
B13	2.28
ADPVCRPQWMCEGF [Phage-2961]	2.26
TLMRCEPSWMCQGF [Phage-2954]	2.27
PEFVCKPSWMCQGF [Phage-2959]	2.26
TTAYCIPPWMCSGF [Phage-2955]	2.27
EQPLCTPQWMCWGF [Phage-2958]	2.27
VDIQCKPLWMCIGM [Phage-2953]	2.27
ENIMCEPMWMCIGF [Phage-2951]	2.27
SSPICKPMWMCTGF [Phage-2950]	2.28
YLQFCKPVWMCTGF [Phage-2956]	2.27
AYEMCIPAWMCEGF [Phage-2957]	2.27
WDHLCKPDWMCLGF [Phage-2949]	2.28

The binders below were run against T3, 006 PSMA Fab (biotinylated (site not stated)) (assay: clonal phage ELISA on biotinylated PSMA Fab captured on neutravidin, anti-M13-HRP detection;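 further: crude clonal phage supernatants added to wells preincubated with PSMA antigen in blocking buffer or with blocking buffer alone, brief binding period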).
T3 construct: also called Anti-PSMA Fab

Binder	Phage binding ELISA signal, Anti-PSMA Fab
B14	2.29
B15	2.28
B16	2.28
B17	2.28
B18	2.28
B19	2.28
B20	2.28
B21	2.28
B22	2.29
B23	2.29
B24	2.28
B25	2.28
B26	2.29

Each binder was assayed against T1, PSMA Fab (assay: phage ELISA, biotinylated anti-PSMA Fab on neutravidin plate, anti-M13 HRP detection).
Experimental: (§1) Clonal phage were harvested as crude supernatants and screened via standard ELISAs. […] Prior to the addition of clonal phage. wells were incubated with blocking buffer and PSMA antigen or blocking buffer alone. Without washing or aspirating, clonal phage supernatants were then added to the wells and incubated for a short time. Wells were then washed followed by detection of bound phage using a horse radish conjugated anti-M13 antibody.

Binder	Phage binding ELISA signal, Anti-PSMA Fab
B1	2.26
B2	2.26
B3	2.26
B4	2.25
B5	2.26
B6	2.26
B7	2.25
B8	2.26
B9	2.26
B10	2.26
B11	2.26

What follows are binders tested against T2, PSMA Fab (006 PSMA Fab) (assay: clonal phage ELISA on biotinylated PSMA Fab captured on neutravidin, anti-M13 HRP detection, competitor PSMA antigen).
Experimental: as §1

Binder	Phage binding ELISA signal, Anti-PSMA Fab with PSMA antigen
WEQRCVPEWMCVGF [Phage-2960]	0.0987
B12	0.0746
B13	0.0876
ADPVCRPQWMCEGF [Phage-2961]	0.11
TLMRCEPSWMCQGF [Phage-2954]	0.0698
PEFVCKPSWMCQGF [Phage-2959]	0.0681
TTAYCIPPWMCSGF [Phage-2955]	0.15
EQPLCTPQWMCWGF [Phage-2958]	0.0972
VDIQCKPLWMCIGM [Phage-2953]	0.0643
ENIMCEPMWMCIGF [Phage-2951]	0.0839
SSPICKPMWMCTGF [Phage-2950]	0.0918
YLQFCKPVWMCTGF [Phage-2956]	0.15
AYEMCIPAWMCEGF [Phage-2957]	0.0905
WDHLCKPDWMCLGF [Phage-2949]	0.0766

These binders were tested against T3, 006 PSMA Fab (assay: clonal phage ELISA on captured PSMA Fab, wells pre-incubated with PSMA antigen as competitor).
Experimental: as §1

Binder	Phage binding ELISA signal, Anti-PSMA Fab in presence of PSMA
B14	0.202
B15	0.696
B16	0.0637
B17	0.0754
B18	0.0765
B19	0.107
B20	0.105
B21	0.09
B22	0.319
B23	0.145
B24	0.112
B25	0.0649
B26	0.0823
